Results published in patent US20120093835A1 (DECIMMUNE THERAPEUTICS, published 2012).
Values belong to the binder of their own block, whether it stands above or below them. Where no end group is shown, it is not given here.

Target: T1, N2 peptide (Ac-LMKNMDPLNDNV), N2 self-peptide of Mouse NMHC-IIB (592-603) (mouse (the filing says the region is …, not fully specified; printed as Ac-LMKNMDPLNDNV)
T1 peptide: Ac-LMKNMDPLNDNV
Test: not described (in vitro and in vivo binding of hybridoma antibody to N2 peptide)

binding result: binds
B1: IgG^21G6 (21G6 IgG), antibody produced by murine B-cell hybridoma 21G6 (ATCC PTA-9393) (antibody, V domains shown)
VH: QVQLQESGAELVKPGASVKLSCKASGYTFTSYYMYWVKQRPGQGLEWIGGINPSNGGTNFNEKFKSKATLTVDKSSSTAYMQLSSLTSEDSAVYYCTRWGYDREWFAYWGQGTLVTVSA
VL: DIVMTQAAPSVPVTPGESVSISCRSSKSLLHSNGNTYLYWFLQRPGQSPQVLIYRMSNLASGVPDRFSGSGSGTAFTLRISRVEAEDVGVYYCMQHLEYPFTFGSGTKLEIKR
notes: also called anti-N2 mAb

binding result: binds
B2: IgG^12A6 (12A6 IgG), antibody produced by murine B-cell hybridoma 12A6 (ATCC PTA-9392) (antibody, V domains shown)
VH: QVTLKESGPGILQPSQTLSLTCSFSGFSLSTFGIGVGWIRQPSGKGLEWLAHIWWNDNNYYNTSLKSRLTISKDTSNNQVFLKIASVDTADTATYYCARVGGINFSMDYWGQGTSVTVSS
VL: DIVMTQSASSLAVSAGEKVTMNCKSSQSVLYSSNQKNYLAWYQQKPGQSPKLLIYWASTRESGVPDRFTGSGSGTDFTLTISSVQAEDLAVYYCHQYLSSWTFGGGTKLEIKR
notes: also called 12A6 hybridoma antibody; anti-N2 antibody (12A6)
